Experimental data: patent US20250296994A1 (SYSMEX, published 2025)

Biological target: T1, human Crtac1A (human, UniProt Q9NQ79 28-661)
T1 construct: Recombinant protein (IB control sample) or native protein in human CSF and serum; also called rCrtac1A
T1 sequence: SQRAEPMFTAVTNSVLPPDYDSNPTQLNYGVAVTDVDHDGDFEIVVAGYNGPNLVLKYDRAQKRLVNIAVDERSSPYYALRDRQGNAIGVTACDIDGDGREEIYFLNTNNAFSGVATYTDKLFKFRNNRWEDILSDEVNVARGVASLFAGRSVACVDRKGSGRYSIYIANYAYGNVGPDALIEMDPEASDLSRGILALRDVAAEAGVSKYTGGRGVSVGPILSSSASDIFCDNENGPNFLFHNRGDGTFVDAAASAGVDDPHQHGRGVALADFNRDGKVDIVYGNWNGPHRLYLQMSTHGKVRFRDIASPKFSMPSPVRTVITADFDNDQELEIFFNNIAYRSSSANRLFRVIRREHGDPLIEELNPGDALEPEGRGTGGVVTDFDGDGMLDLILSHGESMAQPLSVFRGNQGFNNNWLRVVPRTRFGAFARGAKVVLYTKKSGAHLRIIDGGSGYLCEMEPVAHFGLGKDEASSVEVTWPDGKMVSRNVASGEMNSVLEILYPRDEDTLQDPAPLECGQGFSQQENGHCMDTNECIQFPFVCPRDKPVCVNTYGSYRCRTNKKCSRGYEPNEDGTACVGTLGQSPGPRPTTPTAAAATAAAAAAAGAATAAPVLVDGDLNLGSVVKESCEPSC
Experiment: immunoblotting (Wes) of denatured recombinant Crtac1A/1B and human CSF
Method: Study of specificity of monoclonal antibody to antigen (1) Immunoblotting (IB) analysis using a monoclonal antibody purified from the culture supernatant of hybridomas of clones 1B4 and 15C2 was performed on human cerebrospinal fluid (2 specimens: referred to as CSF1 and CSF2) by simple Western (registered trademark) system Wes (registered trademark) (Protein Simple Corporation). In the analysis by Wes, capillary electrophoresis and IB of the sample were performed fully automatically by the apparatus. Specific operations such as preparation of an electrophoresis sample, preparation of a diluent of a primary antibody, and analysis by an apparatus were performed according to the protocol attached to Wes. As a control sample, recombinant proteins of Crtac1A and Crtac1B were used. These recombinant proteins were prepared in the same manner as in Example 1. For comparison, analysis using an anti-rat LOTUS antibody (ITM, 45-12C) as a primary antibody was also performed.
In FIG. 5, “conventional antibody” represents the anti-rat LOTUS antibody, and “rCrtac1A/1B” represents recombinant proteins of Crtac1A and Crtac1B. […] However, when monoclonal antibodies derived from clones 1B4 and 15C2 were used, a band was not detected. In the electrophoresis sample, the protein in the sample was denatured by addition of a sample buffer and heating.

B1: 15C2 antibody (monoclonal antibody derived from the hybridoma of clone 15C2) (antibody, mouse IgG1, kappa, V domains shown)
VH: EVQLQQFGAELVKPGASVKISCKASGYTFTDYNMDWVKQSHGKSLEWIGDINPNYDSSSYNQKFKGKATLTVDKSSSTAYMELRSLTSEDTAVYYCTRSGGTYWGQGTLVTVSA
VL: DIQMNQSPSSLSASLGDTITITCHASQNINVWLSWYQQKPGNIPKLLIYKASNLHTGVPSRFSGSGSGTGFSLTISSLQPEDIATYYCQQAQSYPRTFGGGTKLEIKR
notes: Mouse IgG1; Used as hybridoma culture supernatant (ELISA) or purified from supernatant (IB, IP); also called anti-Crtac1B antibody; antibody of the present embodiment
B1: no binding.
